Measurements reported in PMC8822174.

Assays:
[1] = target: swine fibronectin (swine); assay: SPR
[2] = target: swine plasminogen (swine); assay: SPR

Substance | Kd [1] [nM] | Kd [2] [nM]
Mycoplasma pneumoniae enolase (from UniProt P75189 1-456) (enzyme) | > 1000 | 300
Mycoplasma hyopneumoniae enolase (enzyme) | 74.1 | 62.5
Mycoplasma bovis enolase (from UniProt A0A454AQL1 1-454) (enzyme) | 486 | 95.2
